Measurements published in the supplement of paper PMC9170038.

Test system: MS2 coat protein
Assay: apparent KD of MS2 coat protein; designed switch direction (-1 OFF switch, 1 ON switch): -1; higher = weaker reporter binding
Summary of the method: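 An oligonucleotide input, 200 uM small-molecule ligand, or no input was present during titration of SNAP-549-labelled MS2 coat protein, which was doubled from 0.7 or 1.5 nM to 3 µM. Designed RNA switches had been transcribed on Illumina chips by stalled E. coli RNA polymerase. Apparent KD per design is the median over clusters of curves fitted to normalised cluster fluorescence.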

[1] = input ligand: microRNA oligo, concentration not stated
[2] = Eterna round: R95, input ligand: microRNA oligo, concentration not stated
[3] = Eterna round: R95, input ligand: FMN 200 uM
[4] = Eterna round: R95, input ligand: none

Sequence	apparent KD of MS2 coat protein (input ligand: FMN 200 uM) [µM]	apparent KD of MS2 coat protein (input ligand: none) [µM]	apparent KD of MS2 coat protein [1] [µM]	apparent KD of MS2 coat protein [2] [µM]	apparent KD of MS2 coat protein [3] [µM]	apparent KD of MS2 coat protein [4] [µM]
UCCUAACAUGAGGAUCACCCAUGUCAGGAUAUCUACGUCAGAACCACGUAUGUAGGCGAGAGAAGGGACAGAGG [EX1 C.14] (Eterna round: R97, puzzle: Exclusion 1)	0.021	0.0174				
UCCUCACAUGAGGAUCACCCAUGUGAGGAUAUGGGCCCGGGCCCGAAAGGGCCCGGGCCCAGAAGGCACUGGGU [MoB_2] (Eterna round: R97, puzzle: Exclusion 1)	0.025	0.0561				
UCCUGACAUGAGGAUCACCCAUGUGAGGAUAUGUGGAUCGAGACAACUCUCGGUCCGUGCAGAAGGCACAGGGC [EX1 A.20] (Eterna round: R97, puzzle: Exclusion 1)	0.0281	0.0203				
UCGCAGUUAGGAUAUACAUGAGGAUCACCCAUGUGGCUCCGGACCGGCAACGAAUCACGUAGAAGGGACUGCAG [Eternabot (Original) Solution 24] (Eterna round: R97, puzzle: Exclusion 3)	0.0204	0.0168				
UCGCGCCAAGGAUAUACAUGAGGAUCACCCAUGUUGAAAGAAAAGUUGUCCGGUCCCAGUAGAAGGUGGUUCCC [Eternabot (L2) Solution 90] (Eterna round: R97, puzzle: Exclusion 3)	0.0235	0.0584				
UCGCUCCGUGUAGGAUAUCGCCGUUCUAUUCGGCGAGAAGGACAUGAGGAUCACCCAUGUAUGUUAUUAUCACGCGUGGCGCGC [Design 56] (Eterna round: R96, puzzle: Exclusion NG 1)	0.0188	0.0154	0.00879			
UCGCUCCGUGUAGGAUAUCGUUGUACUCUGCGGCGAGAAGGACAUGAGGAUCACCCAUGUAUGUUAUUAUCACGCGUGGCGCAA [Design 68] (Eterna round: R96, puzzle: Exclusion NG 1)	0.0215	0.019	0.017			
UCGCUGCGAGGAUAUACAUGAGGAUCACCCAUGUACGGGUCCGGGUCUUCGUCUAUUGGUAGAAGGCGCAGUGA [JL Laongeedie mod 8] (puzzle: Exclusion 3)				0.0436		
UCGCUGCGAGGAUAUACGUUCGCGCGCUUUCGUUUGCGCGUACAUGAGGAUCACCCAUGUAGAAGGCGCGCUGC [Apr-15 SS2-7] (puzzle: Exclusion 2)				0.0137		
UCGGCGCGAGGAUAUGCGGUUUGUGCUUUGGGCCCUGGCGUACAUGAGGAUCACCCAUGUAGAAGGCGUGUUGC [Apr-15 SS2-49] (puzzle: Exclusion 2)				0.0179		
UCGUGGUAAAUCAGAAGUUUCCUGAGCGGAGGAACUUUGACAUGAGGAUCACCCAUGUUGCUUUUUGCUCAUCUUAA [JR_SV3TOV2_Sub043] (puzzle: Sensor v3, turn-off variant 2)				0.0418	0.0153	0.0129
UCGUUCCGUGUAGGAUAUUGGCCUUCUCUGGGCCGAGAAGGACAUGAGGAUCACCCAUGUAUGUUAUUAUCACGCGUGGCGCAU [Design 84] (Eterna round: R96, puzzle: Exclusion NG 1)	0.181	0.0251	0.0229			
UCGUUCCGUGUAGGAUAUUGGUCUCCCUCGGGCCGAGAAGGACAUGAGGAUCACCCAUGUAUGUUAUUAUCGCGCGUGGCGCAU [Design 90] (Eterna round: R96, puzzle: Exclusion NG 1)	0.0295	0.0241	0.0178			
UCUAGCUUUUUGCGUCAAGCAUUGAAGUCUGUGAUCGUAACAUGAGGAUCACCCAUGUAAGUUUUAUGUCGUCUUGU [JR_SV3TOV2_Sub098] (puzzle: Sensor v3, turn-off variant 2)				0.0414	0.0478	0.0633
UCUCACUCAGGAUAUCUUCCGCAUGACAUGAGGAUCACCCAUGUGUGCAUGCCCUUUGGUAGAGAAGGGAGUGAGA [eternacac ex5r4 #5] (Eterna round: R97, puzzle: Exclusion 5)	0.0227	0.0244				
UCUCGCAGGCAAGGAUAUCCUACAUUGUUCUGGCCCGGGCAUGCUACAUGAGGAUCACCCAUGUGGGAGAAGGUGCGCCACGGC [Design 32] (Eterna round: R96, puzzle: Exclusion NG 2)	0.0479	0.0354	0.036			
UCUCGCUGGCGAGGAUAUCCUGUGCGGUUCCGGCUCGUGUCUGUUACAUGAGGAUCACCCAUGUGGGAGAAGGUGUCUGUGGCC [Design 96] (Eterna round: R96, puzzle: Exclusion NG 2)	0.0167	0.0188	0.0154			
UCUGCUUUAGGAUAUACGAGAUCCUGCGAUGUACUCUUCGGACAUGAGGAUCACCCAUGUAGAAGGAAAGCAGG [Eternabot (L2) Solution 20] (Eterna round: R97, puzzle: Exclusion 2)	0.0964	0.0122				
UCUGUUUUGCGAGGAUAUCGACCAUUCCUCUUAACAUGAGGAUCACCCAUGUGCUAAUCCUACAACGAGAAGGCGCUCAUACUC [JR_ExcNG2_Sub066] (Eterna round: R96, puzzle: Exclusion NG 2)			0.195			
UCUUACUGAGGAUAUACAUAGAUUUACAUGAGGAUCACCCAUGUUCCUCUAUGUAUAAAUGUAGAAGGCAGAAGAU [Mat - Exclusion 5 - JL Mod - D54] (Eterna round: R97, puzzle: Exclusion 5)	0.0729	0.018				
UCUUGUUGUCCUUGAUAAUACAUGAGGAUCACCCAUGUUAUUUUGAUUAUGAUGUGUAAGUUUGUUGCUCGUUUUAU [JR_STOV1_Sub069] (Eterna round: R97, puzzle: Sensor, turn-off variant 1)	0.0277	0.0309				
UCUUGUUGUCCUUGAUUUUACAUGAGGAUCACCCAUGUUAUUUUGAUUAUGAUGUGUAAGUUUGUUGCUCGUUUUAU [JR_STOV1_Sub068] (Eterna round: R97, puzzle: Sensor, turn-off variant 1)	0.0498	0.0543				
UGAAACCUAGGAUAUACAUGAGGAUCACCCAUGUAAUGUAGUAUAGUAUAUGUAAGAUGUAGAAGGAGGAAUGU [LRO-Excl05-27-Smart Aleck] (Eterna round: R97, puzzle: Exclusion 3)	0.0309	0.0349				
UGAAUACGUGUUAGGAUAUGGUUUGGUAUUUUAGAUUAGAAGGGACAUGAGGAUCACCCAUGUAAUUGAUAGGU [-13, -10.4 kcal, 30% A] (Eterna round: R97, puzzle: Brourd's mod of Exclusion 4)	0.038	0.0419				
UGAGAGAGUAUAGGAUAUUAGAGGAGAAUGGUGAUAGAGACAUGAGGAUCACCCAUGUGAGGAGAUAAGAAGGGUAAGAACUCA [AK ExNG2-V2-4] (Eterna round: R96, puzzle: Exclusion NG 2)	0.452	0.435	0.292			
UGAGAGCAAGGAUAUACGUUGGUGUAUACCCGGGUAUGUAUACAUGAGGAUCACCCAUGUAGAAGGUGCACAAA [EX2 B.1] (Eterna round: R97, puzzle: Exclusion 2)	0.12	0.036				
